From patent US20040058457 (published 2004)

B1: NZ-23 420 bp fragment with 23 tandem Zif268 sites separated by NRE sites (dsDNA)
DNA 1: AAGGGTTCAGCGTGGGCG
DNA 2: CGCCCACGCTGAACCCTT
B2: NZ-23 (as added to Au-GSH/GST-Zif268 assay) (dsDNA)
DNA 1: AAGGGTTCAGCGTGGGCG
DNA 2: CGCCCACGCTGAACCCTT

Experiments:
GST-Zif268 (PED107) [1] = target: T1, GST-Zif268 (PED107) (mouse, UniProt P08046 SEQ:1-90); test: EMSA; 1% agarose gel, RT 10 min, 0-4 uL of 1 mg/mL protein; shorter DNA trapped in well with increasing protein
GST-Zif268 (PED107) [2] = target: T1, GST-Zif268 (PED107); test: EMSA; protein bound to Au-GSH nanoparticles; DNA co-migrated with Au particles; 1% agarose, 1xTAE, RT 10 min

Binder | binding result (GST-Zif268 (PED107) [1]) | binding result (GST-Zif268 (PED107) [2])
B1 | binds | 
B2 |  | binds
